T1: EsCas13d, nuclease-dead (Eubacterium siraeum, UniProt B0MS50, R295A;H300A;R849A;H854A)
T1 sequence: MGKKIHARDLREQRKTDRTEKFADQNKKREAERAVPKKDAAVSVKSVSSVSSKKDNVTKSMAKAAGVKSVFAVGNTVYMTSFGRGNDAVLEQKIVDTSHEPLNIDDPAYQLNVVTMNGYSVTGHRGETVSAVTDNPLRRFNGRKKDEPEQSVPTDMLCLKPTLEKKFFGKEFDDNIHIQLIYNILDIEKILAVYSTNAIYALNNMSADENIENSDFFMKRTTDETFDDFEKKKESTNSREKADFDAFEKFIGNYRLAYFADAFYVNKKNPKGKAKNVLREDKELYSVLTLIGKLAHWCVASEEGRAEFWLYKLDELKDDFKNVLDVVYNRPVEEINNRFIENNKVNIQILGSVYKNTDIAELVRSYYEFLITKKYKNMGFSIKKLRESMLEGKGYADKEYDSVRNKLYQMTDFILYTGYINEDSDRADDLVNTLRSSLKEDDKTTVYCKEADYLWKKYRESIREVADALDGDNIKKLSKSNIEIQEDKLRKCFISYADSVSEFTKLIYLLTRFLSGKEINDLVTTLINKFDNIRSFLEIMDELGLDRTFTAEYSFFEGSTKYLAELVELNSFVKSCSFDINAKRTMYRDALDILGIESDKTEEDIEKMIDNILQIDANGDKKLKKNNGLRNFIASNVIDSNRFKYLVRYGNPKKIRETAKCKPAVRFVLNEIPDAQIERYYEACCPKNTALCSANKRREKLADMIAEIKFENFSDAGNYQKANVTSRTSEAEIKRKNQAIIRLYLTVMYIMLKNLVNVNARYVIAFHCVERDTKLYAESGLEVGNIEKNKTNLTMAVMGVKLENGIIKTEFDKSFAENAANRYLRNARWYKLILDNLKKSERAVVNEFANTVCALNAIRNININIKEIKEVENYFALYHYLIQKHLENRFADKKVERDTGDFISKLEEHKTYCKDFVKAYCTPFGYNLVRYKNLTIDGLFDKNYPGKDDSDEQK

B1: target 1 MT 5'PFS AAU 3'PFS AAC (mixed)
RNA 1: CACCCGUGCAAAAAUGCAGGGGUCUAAAACUGAGCGGAUAACCUCUCUAUGG
RNA 2: GGGAAUGGAUCCACAUCUACGAAUUCAAUCCAUAGAGAGGUUAUCCGCUCAAACAGAUCGGAAGAGCACACGU
B2: target 1 MT 5'PFS GCC 3'PFS CGA (mixed)
RNA 1: CACCCGUGCAAAAAUGCAGGGGUCUAAAACUGAGCGGAUAACCUCUCUAUGG
RNA 2: GGGAAUGGAUCCACAUCUACGAAUUCGCCCCAUAGAGAGGUUAUCCGCUCACGAAGAUCGGAAGAGCACACGU
B3: target 1 MT 5'PFS CAG 3'PFS UGA (mixed)
RNA 1: CACCCGUGCAAAAAUGCAGGGGUCUAAAACUGAGCGGAUAACCUCUCUAUGG
RNA 2: GGGAAUGGAUCCACAUCUACGAAUUCCAGCCAUAGAGAGGUUAUCCGCUCAUGAAGAUCGGAAGAGCACACGU
B4: target 1 G13C,G15U (mixed)
RNA 1: CACCCGUGCAAAAAUGCAGGGGUCUAAAACUGAGCGGAUAACCUCUCUAUGG
RNA 2: GGGAAUGGAUCCACAUCUACGAAUUCGUACCAUAGAUACGUUAUCCGCUCACCGAGAUCGGAAGAGCACACGU
B5: target 1 MT 5'PFS GCC 3'PFS CGG (mixed)
RNA 1: CACCCGUGCAAAAAUGCAGGGGUCUAAAACUGAGCGGAUAACCUCUCUAUGG
RNA 2: GGGAAUGGAUCCACAUCUACGAAUUCGCCCCAUAGAGAGGUUAUCCGCUCACGGAGAUCGGAAGAGCACACGU
B6: target 1 MT 5'PFS UAA 3'PFS AGG (mixed)
RNA 1: CACCCGUGCAAAAAUGCAGGGGUCUAAAACUGAGCGGAUAACCUCUCUAUGG
RNA 2: GGGAAUGGAUCCACAUCUACGAAUUCUAACCAUAGAGAGGUUAUCCGCUCAAGGAGAUCGGAAGAGCACACGU
B7: target 1 MT 5'PFS UAA 3'PFS AGA (mixed)
RNA 1: CACCCGUGCAAAAAUGCAGGGGUCUAAAACUGAGCGGAUAACCUCUCUAUGG
RNA 2: GGGAAUGGAUCCACAUCUACGAAUUCUAACCAUAGAGAGGUUAUCCGCUCAAGAAGAUCGGAAGAGCACACGU
B8: target 1 MT 5'PFS AGG 3'PFS UAG (mixed)
RNA 1: CACCCGUGCAAAAAUGCAGGGGUCUAAAACUGAGCGGAUAACCUCUCUAUGG
RNA 2: GGGAAUGGAUCCACAUCUACGAAUUCAGGCCAUAGAGAGGUUAUCCGCUCAUAGAGAUCGGAAGAGCACACGU
B9: target 1 MT 5'PFS AGG 3'PFS UAU (mixed)
RNA 1: CACCCGUGCAAAAAUGCAGGGGUCUAAAACUGAGCGGAUAACCUCUCUAUGG
RNA 2: GGGAAUGGAUCCACAUCUACGAAUUCAGGCCAUAGAGAGGUUAUCCGCUCAUAUAGAUCGGAAGAGCACACGU
B10: target 1 MT 5'PFS ACG 3'PFS UAA (mixed)
RNA 1: CACCCGUGCAAAAAUGCAGGGGUCUAAAACUGAGCGGAUAACCUCUCUAUGG
RNA 2: GGGAAUGGAUCCACAUCUACGAAUUCACGCCAUAGAGAGGUUAUCCGCUCAUAAAGAUCGGAAGAGCACACGU
B11: target 1 MT 5'PFS UCC 3'PFS UUU (mixed)
RNA 1: CACCCGUGCAAAAAUGCAGGGGUCUAAAACUGAGCGGAUAACCUCUCUAUGG
RNA 2: GGGAAUGGAUCCACAUCUACGAAUUCUCCCCAUAGAGAGGUUAUCCGCUCAUUUAGAUCGGAAGAGCACACGU
B12: target 1 MT 5'PFS UCG 3'PFS UGA (mixed)
RNA 1: CACCCGUGCAAAAAUGCAGGGGUCUAAAACUGAGCGGAUAACCUCUCUAUGG
RNA 2: GGGAAUGGAUCCACAUCUACGAAUUCUCGCCAUAGAGAGGUUAUCCGCUCAUGAAGAUCGGAAGAGCACACGU
B13: target 1 MT 5'PFS UGG 3'PFS UCG (mixed)
RNA 1: CACCCGUGCAAAAAUGCAGGGGUCUAAAACUGAGCGGAUAACCUCUCUAUGG
RNA 2: GGGAAUGGAUCCACAUCUACGAAUUCUGGCCAUAGAGAGGUUAUCCGCUCAUCGAGAUCGGAAGAGCACACGU
B14: target 1 MT 5'PFS GCC 3'PFS CGC (mixed)
RNA 1: CACCCGUGCAAAAAUGCAGGGGUCUAAAACUGAGCGGAUAACCUCUCUAUGG
RNA 2: GGGAAUGGAUCCACAUCUACGAAUUCGCCCCAUAGAGAGGUUAUCCGCUCACGCAGAUCGGAAGAGCACACGU
B15: target 1 MT 5'PFS GCU 3'PFS CAU (mixed)
RNA 1: CACCCGUGCAAAAAUGCAGGGGUCUAAAACUGAGCGGAUAACCUCUCUAUGG
RNA 2: GGGAAUGGAUCCACAUCUACGAAUUCGCUCCAUAGAGAGGUUAUCCGCUCACAUAGAUCGGAAGAGCACACGU
B16: target 1 MT 5'PFS UGG 3'PFS UCA (mixed)
RNA 1: CACCCGUGCAAAAAUGCAGGGGUCUAAAACUGAGCGGAUAACCUCUCUAUGG
RNA 2: GGGAAUGGAUCCACAUCUACGAAUUCUGGCCAUAGAGAGGUUAUCCGCUCAUCAAGAUCGGAAGAGCACACGU
B17: target 1 MT 5'PFS GCU 3'PFS CAA (mixed)
RNA 1: CACCCGUGCAAAAAUGCAGGGGUCUAAAACUGAGCGGAUAACCUCUCUAUGG
RNA 2: GGGAAUGGAUCCACAUCUACGAAUUCGCUCCAUAGAGAGGUUAUCCGCUCACAAAGAUCGGAAGAGCACACGU
B18: target 1 MT 5'PFS UAA 3'PFS CAA (mixed)
RNA 1: CACCCGUGCAAAAAUGCAGGGGUCUAAAACUGAGCGGAUAACCUCUCUAUGG
RNA 2: GGGAAUGGAUCCACAUCUACGAAUUCUAACCAUAGAGAGGUUAUCCGCUCACAAAGAUCGGAAGAGCACACGU
B19: target 1 MT 5'PFS AGG 3'PFS UAC (mixed)
RNA 1: CACCCGUGCAAAAAUGCAGGGGUCUAAAACUGAGCGGAUAACCUCUCUAUGG
RNA 2: GGGAAUGGAUCCACAUCUACGAAUUCAGGCCAUAGAGAGGUUAUCCGCUCAUACAGAUCGGAAGAGCACACGU
B20: target 1 insG 3' of 14,insG 3' of 8 (mixed)
RNA 1: CACCCGUGCAAAAAUGCAGGGGUCUAAAACUGAGCGGAUAACCUCUCUAUGG
RNA 2: GGGAAUGGAUCCACAUCUACGAAUUCGUACCAUAGAGAGGGUUAUGCCGCUCACCGAGAUCGGAAGAGCACACGU
B21: target 1 MT 5'PFS UAC 3'PFS UCU (mixed)
RNA 1: CACCCGUGCAAAAAUGCAGGGGUCUAAAACUGAGCGGAUAACCUCUCUAUGG
RNA 2: GGGAAUGGAUCCACAUCUACGAAUUCUACCCAUAGAGAGGUUAUCCGCUCAUCUAGAUCGGAAGAGCACACGU
B22: target 1 MT 5'PFS UCC 3'PFS UUG (mixed)
RNA 1: CACCCGUGCAAAAAUGCAGGGGUCUAAAACUGAGCGGAUAACCUCUCUAUGG
RNA 2: GGGAAUGGAUCCACAUCUACGAAUUCUCCCCAUAGAGAGGUUAUCCGCUCAUUGAGAUCGGAAGAGCACACGU
B23: target 1 MT 5'PFS UAA 3'PFS CAG (mixed)
RNA 1: CACCCGUGCAAAAAUGCAGGGGUCUAAAACUGAGCGGAUAACCUCUCUAUGG
RNA 2: GGGAAUGGAUCCACAUCUACGAAUUCUAACCAUAGAGAGGUUAUCCGCUCACAGAGAUCGGAAGAGCACACGU
B24: target 1 MT 5'PFS GAA 3'PFS AAU (mixed)
RNA 1: CACCCGUGCAAAAAUGCAGGGGUCUAAAACUGAGCGGAUAACCUCUCUAUGG
RNA 2: GGGAAUGGAUCCACAUCUACGAAUUCGAACCAUAGAGAGGUUAUCCGCUCAAAUAGAUCGGAAGAGCACACGU

Target: T1, EsCas13d, nuclease-dead
Experiment: crRNA (strand 1, pre-loaded); Mg2+; 40 mM Tris-HCl pH 7.5, 150 mM NaCl, 6 mM MgCl2, 1 mM DTT, 0.1% Tween-20, 0.2 mg/ml BSA; 25 C; 10 min per concentration, then washed
Details: tags: His6-TwinStrep-SUMO cleaved; N-terminal SNAP kept (SNAP-Surface 488); label: 3' end held by stalled T7 RNA polymerase

Binder	Kd
B1	47.5 ± 18.5 nM
B2	18.5 ± 7.5 nM
B3	~60 nM
B4	66 ± 18 nM
B5	26.1 ± 9.1 nM
B6	~75 nM
B7	37 ± 6.5 nM
B8	23 ± 6.5 nM
B9	35 ± 16.5 nM
B10	13.5 ± 5 nM
B11	11 ± 4 nM
B12	33 ± 9.5 nM
B13	71.5 ± 22.5 nM
B14	15.5 ± 6 nM
B15	51 ± 15 nM
B16	70 ± 29 nM
B17	~60 nM
B18	~52.5 nM
B19	32 ± 13 nM
B20	9.7 ± 0.7 nM
B21	9.9 ± 3.2 nM
B22	13.3 ± 2.45 nM
B23	53 ± 22 nM
B24	40.5 ± 13 nM

From paper PMC10786891, “Massively parallel profiling of RNA-targeting CRISPR-Cas13d”
